# Measured values reported in paper PMC9405973, “Altered Conformational Landscape upon Sensing Guanine Nucleotides in a Disease Mutant of Elongation Factor-like 1 (EFL1) GTPase” (Biomolecules, 2022).
# B1: Efl1 wild type (Saccharomyces cerevisiae S288C) (protein)
# chain: MPRVESETYKRLQNDPSCIRNICIVAHVDHGKTSLSDSLLASNGIISQRLAGKIRFLDARPDEQLRGITMESSAISLYFRVLRKQEGSDEPLVSEHLVNLIDSPGHIDFSSEVSAASRLCDGAVVLVDVVEGVCSQTVTVLRQCWTEKLKPILVLNKIDRLITELQLTPQEAYIHLSKVIEQVNSVIGSFFANERQLDDLFWREQLEKNENAEYIEKDDSGIYFNPTDNNVIFASAIDGWGFNIGQLAKFYEQKLGAKRENLQKVLWGDFYMDPKTKKIINNKGLKGRSLKPLFTSLILENIWKIYQNIITSRDSEMVEKIAKTLNIKLLARDLRSKDDKQLLRTIMGQWLPVSTAVLLTVIEKLPSPLESQTDRLNTILVSESDTAAMDPRLLKAMKTCDKEGPVSAYVSKMLSIPREELPVESKRIASSDELMERSRKAREEALNAAKHAGMVENMAMMDLNDNSKNTSDLYKRAKDTVMTPEVGEQTKPKPSRNNDVFCVVSEPSSALDLEFEYEGEDDSDSQDNFGLDFVPTDIDPNDPLSSMFEYEEEDPLLESIKQISEDVNDEVDDIFDEKEECLVAFARIYSGTLRVGQEISVLGPKYDPKCPEEHIETAIITHLYLFMGKELVPLDVCPSGNIVGIRGLAGKVLKSGTLIEKGVQGVNLAGVNFHFTPIVRVAVEPANPVEMSKLVRGLKLLDQADPCVHTYVENTGEHILCTAGELHLERCLKDLTERFAGIEITHSEPAIPYRETFLSASDMNPPQNSQLGRGVHELLLSQYKITFRTFPLSGKVTDFLSQHQNSIKNILKTSTSSMDPVIESTGSSFLDKKSLLVAFEEVINQEEKSRELLSGFKVKLAGFGPSRVGCNILLSQDNLLGSLFEGTPAAFEYSDSIKNGFQLAVSEGPLANEPVQGMCVLVESVHKMSQDEIESIEDPRYQQHIVDLSGRLITSTRDAIHEAFLDWSPRIMWAIYSCDIQTSVDVLGKVYAVILQRHGKIISEEMKEGTPFFQIEAHVPVVEAFGLSEDIRKRTSGAAQPQLVFSGFECIDLDPFWVPTTEEELEELGDTADRENIARKHMNAIRRRKGLFIEEKVVENAEKQRTLKKN
# notes: recombinantly expressed in S. cerevisiae; isolated GTPase
# Tests used:
# [1] = parameters: method as in PMID 25991726, PMID 30780079, PMID 23831625; settings: wild-type Efl1; cited from earlier work
# [2] = system: Tif6 bound to 60S subunits; assay: Tif6 release assay with purified yeast components; format: biochemical, Saccharomyces cerevisiae; settings: 50 nM Efl1 variant, 50 nM Sdo1, 100 µM GTP, 30 °C, 10 min
# Method: The release of Tif6 (yeast orthologue of eIF6) was performed as previously described in [3, 15]. Reaction mixtures contained 10 nM 60S subunits, 40 nM Tif6, 50 nM Efl1 variant, 50 nM Sdo1, and 100 µM GTP in buffer of 10 mM Tris-HCl at pH 7.4, 75 mM KCl, and 1.5 mM MgCl2 supplemented with RNAse inhibitors (Promega, Madison, WI, USA) and protease inhibitors free of EDTA (GoldBio, St. Louis, MO, USA). GTP was omitted in the negative control, and 50 mM EDTA was added as the positive control to disassemble the 60S ribosomal subunits. Reaction mixtures of 100 µL were incubated at 30 °C for 10 min and added on top of 150 µL of a 30% sucrose cushion prepared in the same buffer. Samples were centrifuged at 476,000× g for 30 min in an Optima tabletop MX ultracentrifuge with a TLA-100 rotor. The top 200 µL (free fraction) was recovered, and the remaining 50 µL was resuspended in 150 µL of the same buffer. Samples were precipitated with 30% trichloroacetic acid, electrophoresed in 10% Tris-glycine SDS-PAGE, transferred to a PVDF membrane, and immunoblotted with antibodies anti-eIF6 (PA531066; Thermo Scientific; dilution 1:3000) and anti-uL3 (OAAB09713; Aviva Systems Biology, San Diego, CA, USA; dilution 1:500) overnight at 4 °C. […] Signals were quantified using programme Image J version 1.8.0. […]
# [3] = Enzyme kinetics of GTP hydrolysis (PNP coupled assay, Michaelis–Menten); format: biochemical, Saccharomyces cerevisiae; settings: isolated enzyme
# [4] = substrate: Nc1nc2c(ncn2[C@@H]2O[C@H](COP(=O)(O)OP(=O)(O)OP(=O)(O)O)[C@@H](O)[C@H]2O)c(=O)[nH]1; assay: GTP hydrolysis by PNP-coupled Enzchek phosphate assay (MESG, 360 nm), pH 7.5, 5 mM MgCl2, 6 µM Efl1 alone, Michaelis-Menten fit.; format: biochemical; settings: 25.0 °C
# Method: Finally, we measured the enzyme kinetics of mutant Efl1 R1086Q as an isolated enzyme and bound to Sdo1 using an enzymatic coupled assay with a purine nucleoside phosphorylase (PNP) enzyme. This analysis was extended to another disease mutation (EFL1 M882K) also located in domain IV of the GTPase using the equivalent yeast variant, Efl1 L910K [17]. The Km and kcat kinetic parameters were calculated using non-linear regression assuming a Michaelis–Menten model (Supplementary Table S1). […] The catalytic constant for mutant R1086Q and the wild-type enzyme consisted of 0.67 min^−1, and it was 0.58 min^−1 for mutant Efl1 L910K. […] In line with the proposed role of Sdo1 as a guanine exchange factor of Efl1, previous results have shown that the interaction of wild-type Efl1 with Sdo1 impacted its Km for GTP, decreasing its value 2–3-fold. The Km values for the complexes formed between Sdo1 and Efl1 mutants decreased by half with respect to their cognate-free counterpart and differed from each other. […] The measured Km value comprises all the microscopic rate constants of the individual reactions occurring in the enzyme, which include the binding to the substrate and product and the corresponding conformational changes.
# Hydrolysis of GTP was measured using the Enzchek Phosphate Assay kit (Molecular Probes) as described by Webb. […]
# Reactions were initiated and the GTPase was added after 3 min. Time courses were followed by recording the change in absorbance at 360 nm in a Cary 60 UV -Vis spectrophotometer (Agilent Technologies). Background absorbance was recorded prior to the addition of the GTPase and subtracted from the sample signals. The slope of the measured time courses corresponded to the GTP hydrolysis rate. […] Data were analysed by nonlinear regression to the M ichaelis-Menten equation with the program Origin Version 5.0 (OriginLab, Co., Northampton, MA). […]
# Maximum emission at 440 nm was replotted as a function of nucleotide concentration and analysed
molecule,measurement,setting,value
B1,fold decrease of Km for GTP upon interaction with Sdo1,[1],2–3 fold
same,"release of Tif6 from the 60S subunit (distribution of Tif6 in free and bound fraction, immunoblot)",[2],Tif6 was enriched in the free fraction
same,kcat,[3],0.0112 s⁻¹
same,Km,[4],155 µM
